Laboratory results as given in patent US6342368B1, “WD-40-derived peptides and uses thereof” (The Board of Trustees of the Leland Stanford Junior …, priority 1994, dated 2002).
One block for each molecule: values may come before it.

Legend:
[1] = biological target: T1, RACK1 (Rattus norvegicus, UniProt P63245); test: Overlay assay: concentration dependence of PKC binding to recombinant RACK1; details: βPKC in the presence of other PKC isozymes, n=3
T1 construct: an open reading frame of 317 amino acids from the putative translation start site of pRACK1; made in house; host or cells: TB1 E. coli (RACK1); PKC mixture from rat brain
Description: Purified recombinant RACK1 protein (100-250 μg per lane, produced as detailed in Example 2) was subjected to SDS/PAGE and blotted onto nitrocellulose membranes (Ausubel). The nitrocellulose membranes were cut into strips, which were incubated for 0.5 hr in overlay buffer (Example 1) in the presence or absence of a mixture of PKC isozymes (α, β, γ, δ, ε and ζ, ˜10 nM each final concentration) and PKC activators (60 μg/ml phosphatidylserine (PS), 2 μg/ml diacylglycerol (DG), and 1 mM CaCl2). Unbound material was removed by five washes, 5-min each, in overlay wash buffer. Where indicated, PKC activators were present during the incubation of PKC with the nitrocellulose strips. The conditions for each sample and corresponding results are presented in part D below.
PKC bound to RACK1 immobilized on nitrocellulose strips was detected as follows. […]
The concentration dependence of PKC binding to RACK1 was characterized with βPKC , since this isozyme is a major component of the PKC mixture used for the overlay assay. The mean half maximal binding was ˜0.375 nM, and maximal binding was ˜4 nM (n=3; values reflect binding of βPKC isozyme in the presence of other PKC isozymes and was determined by scanning autoradiograms in the linear range of detection, as described in Mochly-Rosen, et al., (1991).

[2] = biological target: mixture of rat brain PKC isozymes (α, β, γ, δ, ε and ζ) (rat); test: overlay plus overlay-extraction assay; 10 µM peptide preincubated with PKC isozyme mixture (~10 nM each); immobilized RACK1
[3] = biological target: T2, βPKC (rat brain protein kinase C, β isozyme) (rat, UniProt P68403 2-671); test: slot-blot PKC overlay of immobilized peptide, with PS, DG and calcium, anti-βPKC detection
T2 construct: also called beta PKC; βPKC isozyme

[4] = biological target: mixture of rat brain PKC isozymes (α, β, γ, δ, ε and ζ) (rat); test: cell-based or functional assay

B1: peptide I (peptide)
peptide: KGDYEKILVALCGGN
% inhibition of PKC binding to recombinant RACK1 [2]: 81%

B2: control peptide (peptide)
peptide: LKGKIL
binding result [3]: no binding

The remaining lines, values ahead:

maximal binding to RACK1 [1]: ~4 nM | Kd ([1]; read-out: mean half maximal binding to RACK1): ~0.375 nM
Molecule: βPKC: β isozyme of protein kinase C, major component of the rat brain PKC mixture

PKC autophosphorylation in the absence of PKC activators [4]: > 80%
B3: peptide rVI (peptide)
peptide: DIINALCF
